In article PMC5547898 one finds fold increase of the co-immunoprecipitate with Aβo against without Aβo data, which are given here for one substance.

The target of this experiment is Myc-tagged metabotropic glutamate receptor 5 (Myc-mGluR5) (UniProt P41594). Briefly: co-IP.
UniProt P41594, sequence (P41594 21-1212): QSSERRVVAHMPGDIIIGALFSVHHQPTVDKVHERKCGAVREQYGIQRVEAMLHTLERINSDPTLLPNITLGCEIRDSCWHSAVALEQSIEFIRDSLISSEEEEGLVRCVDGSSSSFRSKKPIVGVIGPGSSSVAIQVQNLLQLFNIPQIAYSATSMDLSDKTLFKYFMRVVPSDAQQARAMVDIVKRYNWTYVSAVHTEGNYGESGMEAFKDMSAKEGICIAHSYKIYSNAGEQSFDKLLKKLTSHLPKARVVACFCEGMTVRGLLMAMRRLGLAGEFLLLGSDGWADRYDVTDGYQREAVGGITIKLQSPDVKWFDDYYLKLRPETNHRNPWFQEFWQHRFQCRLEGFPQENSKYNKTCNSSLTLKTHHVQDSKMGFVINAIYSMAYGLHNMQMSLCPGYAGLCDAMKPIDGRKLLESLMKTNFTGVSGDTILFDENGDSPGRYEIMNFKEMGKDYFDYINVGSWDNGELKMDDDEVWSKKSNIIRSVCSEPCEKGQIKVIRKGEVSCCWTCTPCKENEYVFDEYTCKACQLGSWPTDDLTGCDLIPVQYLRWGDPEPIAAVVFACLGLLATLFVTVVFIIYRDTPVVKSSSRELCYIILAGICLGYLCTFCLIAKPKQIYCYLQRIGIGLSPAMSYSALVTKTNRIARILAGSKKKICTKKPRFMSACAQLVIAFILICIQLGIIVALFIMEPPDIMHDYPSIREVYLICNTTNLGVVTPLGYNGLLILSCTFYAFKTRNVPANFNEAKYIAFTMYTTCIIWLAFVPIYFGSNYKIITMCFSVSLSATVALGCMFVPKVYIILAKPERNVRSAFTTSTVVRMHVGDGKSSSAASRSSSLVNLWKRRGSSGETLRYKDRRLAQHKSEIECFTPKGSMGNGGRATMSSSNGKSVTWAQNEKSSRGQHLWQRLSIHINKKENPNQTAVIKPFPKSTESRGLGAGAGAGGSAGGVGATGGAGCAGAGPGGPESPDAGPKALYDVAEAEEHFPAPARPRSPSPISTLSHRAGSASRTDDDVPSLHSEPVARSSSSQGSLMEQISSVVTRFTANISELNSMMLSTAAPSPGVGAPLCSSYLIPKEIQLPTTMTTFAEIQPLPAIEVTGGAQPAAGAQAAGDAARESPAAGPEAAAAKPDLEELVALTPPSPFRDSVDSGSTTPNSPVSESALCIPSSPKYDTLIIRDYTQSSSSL

As for “cellular prion protein (PrP^C) (from UniProt P04156 23-230) (natural protein)”, the fold increase of the co-immunoprecipitate with Aβo against without Aβo was above 2 fold.
